Laboratory results published in paper PMC6345845.

Assays:
14-3-3 = 14-3-3 (UniProt P63104); assay: AUC; sedimentation velocity, SEC buffer, 20 °C, 42 000 rpm; 14-3-3 + P-PI4KB + Rab11; stoichiometries independent of Rab11 nucleotide state
[1] = target: phosphorylated PI4KB (residues 128-799, internal deletion 423-522, T292R, phosphorylated at S294 by PKA) (human) (UniProt Q9UBF8); assay: as above
PI4KB (Homo sapiens) = PI4KB (Homo sapiens) (UniProt Q9UBF8); conditions: cited from earlier work
[2] = target: phosphorylated PI4KB (residues 128-799, internal deletion 423-522, T292R, phosphorylated at S294 by PKA) (human) (UniProt Q9UBF8); assay: AUC; sedimentation velocity, SEC buffer, 20 °C, 42 000 rpm; P-PI4KB alone (20 µM) and with Rab11; stoichiometries independent of Rab11 nucleotide state
[3] = target: pseudo-wt PI4KB labeled with Atto488 (human) (UniProt Q9UBF8); assay: fluorescence cross-correlation spectroscopy (FCCS); on GUV membrane; Atto488-PI4KB attached by tethered ACBD3; mCherry-Rab11-His tethered to the membrane via His tag; proteins approximately 50 nM
Sequence of pseudo-wt PI4KB labeled with Atto488 (human) (Q9UBF8 other isoform, or with tags, fused parts or gaps): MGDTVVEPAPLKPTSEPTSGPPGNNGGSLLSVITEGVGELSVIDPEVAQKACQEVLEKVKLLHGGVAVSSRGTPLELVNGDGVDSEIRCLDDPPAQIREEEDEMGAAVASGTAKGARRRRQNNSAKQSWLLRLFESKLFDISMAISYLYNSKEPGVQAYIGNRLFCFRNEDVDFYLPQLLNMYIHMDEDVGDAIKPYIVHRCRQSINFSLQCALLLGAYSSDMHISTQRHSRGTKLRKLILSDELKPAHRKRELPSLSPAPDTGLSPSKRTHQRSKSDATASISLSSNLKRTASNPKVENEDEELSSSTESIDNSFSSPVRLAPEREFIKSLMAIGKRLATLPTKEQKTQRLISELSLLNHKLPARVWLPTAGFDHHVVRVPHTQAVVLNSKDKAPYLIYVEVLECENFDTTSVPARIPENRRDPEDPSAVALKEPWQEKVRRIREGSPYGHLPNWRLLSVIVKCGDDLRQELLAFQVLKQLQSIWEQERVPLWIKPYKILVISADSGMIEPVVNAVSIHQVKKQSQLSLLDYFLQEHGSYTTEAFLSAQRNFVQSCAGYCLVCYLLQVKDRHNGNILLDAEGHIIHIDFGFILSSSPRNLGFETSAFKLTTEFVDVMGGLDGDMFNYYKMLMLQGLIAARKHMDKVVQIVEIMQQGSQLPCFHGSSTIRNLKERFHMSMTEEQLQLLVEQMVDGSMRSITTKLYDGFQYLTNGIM

Sequence of phosphorylated PI4KB (residues 128-799, internal deletion 423-522, T292R, phosphorylated at S294 by PKA) (human) (Q9UBF8 other isoform, or with tags, fused parts or gaps with the stated changes): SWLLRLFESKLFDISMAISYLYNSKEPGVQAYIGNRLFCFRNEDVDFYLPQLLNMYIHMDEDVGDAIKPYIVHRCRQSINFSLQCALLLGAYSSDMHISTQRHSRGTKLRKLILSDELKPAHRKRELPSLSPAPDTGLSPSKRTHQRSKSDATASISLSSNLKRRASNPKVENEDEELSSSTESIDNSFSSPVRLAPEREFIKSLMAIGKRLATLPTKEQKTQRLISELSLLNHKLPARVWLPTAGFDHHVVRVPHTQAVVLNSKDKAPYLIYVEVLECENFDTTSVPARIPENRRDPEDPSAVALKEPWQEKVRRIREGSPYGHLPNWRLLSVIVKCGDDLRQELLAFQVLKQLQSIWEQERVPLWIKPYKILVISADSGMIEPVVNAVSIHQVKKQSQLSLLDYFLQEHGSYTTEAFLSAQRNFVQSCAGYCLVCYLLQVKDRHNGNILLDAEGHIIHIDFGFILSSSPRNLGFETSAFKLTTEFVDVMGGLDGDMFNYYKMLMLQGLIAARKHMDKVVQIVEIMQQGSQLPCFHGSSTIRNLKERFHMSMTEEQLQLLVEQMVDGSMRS
Sequence of ACBD3 (Q9H3P7 whole entry): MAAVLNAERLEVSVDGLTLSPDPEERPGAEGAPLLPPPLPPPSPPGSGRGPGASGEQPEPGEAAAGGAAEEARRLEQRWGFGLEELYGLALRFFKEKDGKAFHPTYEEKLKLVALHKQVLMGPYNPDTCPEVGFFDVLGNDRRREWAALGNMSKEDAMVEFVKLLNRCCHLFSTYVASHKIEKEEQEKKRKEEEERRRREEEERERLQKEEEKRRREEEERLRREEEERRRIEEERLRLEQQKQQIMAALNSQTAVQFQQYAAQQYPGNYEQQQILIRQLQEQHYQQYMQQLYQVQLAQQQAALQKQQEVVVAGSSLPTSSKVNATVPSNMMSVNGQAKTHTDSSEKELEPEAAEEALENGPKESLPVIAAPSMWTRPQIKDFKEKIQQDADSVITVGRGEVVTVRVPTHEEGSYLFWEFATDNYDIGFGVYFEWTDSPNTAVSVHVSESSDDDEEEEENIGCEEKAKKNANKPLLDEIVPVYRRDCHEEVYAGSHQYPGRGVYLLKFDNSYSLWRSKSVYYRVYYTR
Sequence of PI4KB (Homo sapiens) (Q9UBF8 2-816): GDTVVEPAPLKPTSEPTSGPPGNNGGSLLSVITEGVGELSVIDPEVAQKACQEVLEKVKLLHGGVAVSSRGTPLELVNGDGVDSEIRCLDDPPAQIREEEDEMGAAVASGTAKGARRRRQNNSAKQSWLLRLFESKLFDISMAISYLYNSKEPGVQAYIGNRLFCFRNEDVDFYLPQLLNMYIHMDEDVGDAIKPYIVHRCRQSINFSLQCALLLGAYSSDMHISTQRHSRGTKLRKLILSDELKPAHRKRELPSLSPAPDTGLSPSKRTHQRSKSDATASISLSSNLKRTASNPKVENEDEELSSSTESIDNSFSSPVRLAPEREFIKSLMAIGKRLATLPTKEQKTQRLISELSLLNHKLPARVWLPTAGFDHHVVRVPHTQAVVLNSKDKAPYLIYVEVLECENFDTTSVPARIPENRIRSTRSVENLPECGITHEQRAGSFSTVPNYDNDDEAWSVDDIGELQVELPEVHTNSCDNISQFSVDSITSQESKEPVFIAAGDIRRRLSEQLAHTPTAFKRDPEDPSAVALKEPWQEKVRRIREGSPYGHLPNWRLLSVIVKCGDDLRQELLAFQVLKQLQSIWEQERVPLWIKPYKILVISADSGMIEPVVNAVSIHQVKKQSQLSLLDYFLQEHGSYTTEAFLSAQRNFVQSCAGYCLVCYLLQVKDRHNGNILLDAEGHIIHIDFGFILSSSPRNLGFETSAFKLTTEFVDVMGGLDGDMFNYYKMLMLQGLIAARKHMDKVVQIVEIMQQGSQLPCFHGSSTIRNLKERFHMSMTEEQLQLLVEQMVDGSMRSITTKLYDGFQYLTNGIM

Substance: 14-3-3 (from UniProt P63104 1-230) (natural protein)
- stoichiometry N (14-3-3): 2
- stoichiometry N (14-3-3 chains per PI4KB) [1]: 2

Substance: ACBD3 (from UniProt Q9H3P7)
- Kd (PI4KB (Homo sapiens)): 300 nM

Substance: Rab11 (from UniProt P62491 1-216) (natural protein)
- stoichiometry N [2]: 1
- stoichiometry N [1]: 1

Substance: mCherry-Rab11-His (membrane tethered) (from UniProt P62491 1-216) (natural protein)
- percent of Rab11 in the complex [3]: 10%
